{"source": "IntAct's records for PubMed 29691401", "target": "lmbl3_human L3MBTL3 (UniProt Q96JM7)", "sequence (Q96JM7 whole entry)": "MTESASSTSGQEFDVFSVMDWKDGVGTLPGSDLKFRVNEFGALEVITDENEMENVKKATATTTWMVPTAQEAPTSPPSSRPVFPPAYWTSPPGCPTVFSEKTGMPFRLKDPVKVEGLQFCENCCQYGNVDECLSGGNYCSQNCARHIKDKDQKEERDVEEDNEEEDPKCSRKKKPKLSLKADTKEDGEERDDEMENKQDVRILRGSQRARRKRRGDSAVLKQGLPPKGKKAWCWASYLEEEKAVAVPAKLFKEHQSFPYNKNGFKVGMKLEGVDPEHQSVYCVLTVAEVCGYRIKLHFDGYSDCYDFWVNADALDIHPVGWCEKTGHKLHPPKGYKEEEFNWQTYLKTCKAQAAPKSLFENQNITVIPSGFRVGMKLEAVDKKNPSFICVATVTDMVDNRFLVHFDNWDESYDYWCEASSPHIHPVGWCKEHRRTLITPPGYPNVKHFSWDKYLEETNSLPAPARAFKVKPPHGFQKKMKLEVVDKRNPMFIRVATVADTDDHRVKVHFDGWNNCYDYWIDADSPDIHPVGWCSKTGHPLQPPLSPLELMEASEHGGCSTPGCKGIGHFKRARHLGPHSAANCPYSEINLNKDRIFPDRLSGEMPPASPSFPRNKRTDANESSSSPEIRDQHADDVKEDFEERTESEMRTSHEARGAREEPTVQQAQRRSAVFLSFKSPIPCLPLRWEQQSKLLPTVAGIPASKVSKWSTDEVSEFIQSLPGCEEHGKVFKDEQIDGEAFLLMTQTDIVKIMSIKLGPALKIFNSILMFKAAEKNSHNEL"}
{"substance": "Transcription factor E2F1 (Homo sapiens), Q01094 K185R", "values": [{"measurement": "effect of a mutation on the interaction", "value": "disrupting interaction strength"}]}
